Legend:
[1] = target: human insulin receptor A (human) (UniProt P06213); assay: radioligand binding
[2] = pigs; previously observed; cited from earlier work

Row | fold increase in hIR-A affinity, 20 vs 0 mM glucose, without albumin [1] [fold] | Substance | half-life after s.c. administration [2] [h]
1 | 6.8 | NNC2215 (from UniProt P01308 90-110; P01308 25-53) (ligand) | 
2 |  | insulin detemir | 6.5

Reference: PMC11499270 (Nature, 2024)
